Assay results: PMC4227789 (Nucleic Acids Research, 2014)

Target: p53 DNA-binding domain (residues 92-312), recombinant untagged (Homo sapiens, UniProt P04637)
Assay: ITC

p53 DNA-binding domain (residues 92-312), recombinant untagged, sequence (P04637 92-312): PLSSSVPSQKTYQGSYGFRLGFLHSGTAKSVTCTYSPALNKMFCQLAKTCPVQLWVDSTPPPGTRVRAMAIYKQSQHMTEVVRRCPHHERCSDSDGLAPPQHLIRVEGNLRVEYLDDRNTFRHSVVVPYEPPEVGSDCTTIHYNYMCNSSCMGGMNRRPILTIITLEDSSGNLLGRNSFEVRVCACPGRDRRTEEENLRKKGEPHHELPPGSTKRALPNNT

Kd: ~1 µM | stoichiometry N: 1
B1: p53 DBD nanobody 139, recombinant V5-tagged (VHH)
VHH: QVQLQESGGGLVQAGGSLRLSCAASERTFSTYAMGWFRQAPGREREFLAQINWSGTTTYYAESVKDRTTISRDNAKNTVYLEMNNLNADDTGIYFCAAHPQRGWGSTLGWTYWGQGTQVTVSS
